In patent publication US20250270343A1 (Alector, published 2025):

T1: soluble mouse GPNMB (recombinant extracellular domain) (mouse, UniProt Q99P91 23-502)
T1 construct: also called moGPNMB; not shown: C-terminal polyhistidine or Avi-His tag
T1 sequence: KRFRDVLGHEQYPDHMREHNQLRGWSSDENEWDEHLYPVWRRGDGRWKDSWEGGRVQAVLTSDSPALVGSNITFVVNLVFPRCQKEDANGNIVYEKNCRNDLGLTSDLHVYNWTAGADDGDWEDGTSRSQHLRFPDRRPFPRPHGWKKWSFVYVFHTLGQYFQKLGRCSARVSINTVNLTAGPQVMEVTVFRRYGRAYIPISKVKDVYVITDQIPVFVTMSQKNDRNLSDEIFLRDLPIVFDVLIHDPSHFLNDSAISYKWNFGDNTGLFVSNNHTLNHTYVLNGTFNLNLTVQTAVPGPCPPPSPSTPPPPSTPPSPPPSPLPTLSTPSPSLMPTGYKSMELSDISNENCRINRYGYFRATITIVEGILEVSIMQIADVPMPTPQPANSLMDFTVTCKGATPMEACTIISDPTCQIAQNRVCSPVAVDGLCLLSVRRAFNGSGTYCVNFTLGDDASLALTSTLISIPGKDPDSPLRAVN

T2: full-length untagged human GPNMB expressed on cells (human, UniProt Q14956 23-572)
T2 sequence: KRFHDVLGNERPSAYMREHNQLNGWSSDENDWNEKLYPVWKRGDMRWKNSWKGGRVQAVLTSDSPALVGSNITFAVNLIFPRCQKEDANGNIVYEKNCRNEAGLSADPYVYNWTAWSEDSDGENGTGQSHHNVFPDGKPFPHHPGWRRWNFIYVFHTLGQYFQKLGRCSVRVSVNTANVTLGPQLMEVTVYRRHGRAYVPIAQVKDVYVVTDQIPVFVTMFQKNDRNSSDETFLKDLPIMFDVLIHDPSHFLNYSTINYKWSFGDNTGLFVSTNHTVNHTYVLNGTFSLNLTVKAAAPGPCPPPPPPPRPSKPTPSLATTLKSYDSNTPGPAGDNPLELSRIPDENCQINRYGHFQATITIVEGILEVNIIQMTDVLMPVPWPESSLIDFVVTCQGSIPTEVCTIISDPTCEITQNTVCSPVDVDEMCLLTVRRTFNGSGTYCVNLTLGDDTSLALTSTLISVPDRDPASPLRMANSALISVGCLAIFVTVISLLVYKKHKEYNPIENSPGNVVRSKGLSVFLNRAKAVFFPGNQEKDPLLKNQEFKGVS

T3: soluble cynomolgus GPNMB (recombinant extracellular domain) (cynomolgus, UniProt Q14956 23-499 (human entry), limits assumed)
T3 chain: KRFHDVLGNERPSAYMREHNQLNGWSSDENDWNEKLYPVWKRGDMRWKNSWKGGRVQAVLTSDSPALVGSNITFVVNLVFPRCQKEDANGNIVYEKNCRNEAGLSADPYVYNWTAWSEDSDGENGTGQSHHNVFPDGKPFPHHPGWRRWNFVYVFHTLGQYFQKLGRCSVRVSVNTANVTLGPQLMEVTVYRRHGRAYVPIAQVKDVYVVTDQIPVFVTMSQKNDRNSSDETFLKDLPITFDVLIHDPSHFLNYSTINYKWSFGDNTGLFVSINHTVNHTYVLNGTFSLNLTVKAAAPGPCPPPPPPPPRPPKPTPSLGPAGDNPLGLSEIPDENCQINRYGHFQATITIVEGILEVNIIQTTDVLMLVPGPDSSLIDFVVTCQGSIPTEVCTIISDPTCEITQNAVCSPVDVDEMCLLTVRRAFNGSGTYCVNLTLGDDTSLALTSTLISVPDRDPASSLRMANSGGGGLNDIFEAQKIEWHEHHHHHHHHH

T4: soluble human GPNMB (recombinant extracellular domain) (human, UniProt Q14956 23-498)
T4 construct: also called huGPNMB; recombinant human GPNMB extracellular domain; not shown: C-terminal polyhistidine or Avi-His tag
T4 sequence: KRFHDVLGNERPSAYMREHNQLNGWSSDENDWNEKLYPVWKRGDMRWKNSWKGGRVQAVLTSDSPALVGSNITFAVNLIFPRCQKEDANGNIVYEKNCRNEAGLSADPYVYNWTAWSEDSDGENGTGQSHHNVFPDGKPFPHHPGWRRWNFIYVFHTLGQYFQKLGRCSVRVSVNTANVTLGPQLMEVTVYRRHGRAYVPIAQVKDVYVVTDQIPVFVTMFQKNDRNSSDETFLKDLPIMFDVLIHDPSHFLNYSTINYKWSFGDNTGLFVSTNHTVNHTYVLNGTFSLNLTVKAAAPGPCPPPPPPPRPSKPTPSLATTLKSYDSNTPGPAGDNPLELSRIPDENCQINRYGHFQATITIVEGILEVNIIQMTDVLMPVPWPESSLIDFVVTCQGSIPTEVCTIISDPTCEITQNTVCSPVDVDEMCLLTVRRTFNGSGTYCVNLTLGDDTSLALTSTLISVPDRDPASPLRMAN

T5: soluble mouse GPNMB-Fc polypeptide (Fc of human IgG1 or mouse IgG2A, not specified for the assay) (mouse, UniProt Q99P91 23-502)
T5 construct: extracellular domain; also called moGPNMB-Fc; mGPNMB; not shown: Fc region of human IgG1 or mouse IgG2A; in the Fab2 assay detected with anti-human IgG1 secondary antibody
T5 sequence (looked up): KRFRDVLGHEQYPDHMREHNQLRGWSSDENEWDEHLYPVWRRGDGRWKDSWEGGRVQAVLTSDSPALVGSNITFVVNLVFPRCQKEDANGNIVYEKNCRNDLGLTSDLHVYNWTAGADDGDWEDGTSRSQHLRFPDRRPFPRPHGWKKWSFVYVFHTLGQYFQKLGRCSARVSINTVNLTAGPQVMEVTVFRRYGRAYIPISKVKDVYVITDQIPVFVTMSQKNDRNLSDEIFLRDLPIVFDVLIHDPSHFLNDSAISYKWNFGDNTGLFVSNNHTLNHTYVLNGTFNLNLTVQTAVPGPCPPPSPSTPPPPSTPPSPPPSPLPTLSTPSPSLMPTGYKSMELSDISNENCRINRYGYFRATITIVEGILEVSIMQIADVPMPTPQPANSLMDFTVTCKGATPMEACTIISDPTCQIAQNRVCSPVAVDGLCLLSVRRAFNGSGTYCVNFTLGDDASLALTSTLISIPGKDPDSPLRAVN


Columns and labels:
[1] = target: T1, soluble mouse GPNMB (recombinant …); assay: SPR Biacore T200, IgG captured on Protein A/G; nb = no binding observed
[2] = target: T2, full-length untagged human GPNMB …; assay: cell-based or functional assay
[3] = target: T3, soluble cynomolgus GPNMB (recombinant …); assay: SPR Biacore, IgG captured
Procedure: (§1) Binding kinetics of the humanized and affinity matured anti-GPNMB antibodies described above were evaluated using the Biacore T200 (Cytiva). Briefly, IgGs were diluted to 10 μg/mL and captured using a Protein A/G (ThermioFisher, #21186) surface on a CM5 chip that was prepared by amine coupling according to the instrument manufacturer's recommendations. The captured antibodies were tested for their ability to bind human, cynomolgus monkey, and mouse GPNMB recombinant proteins as follows.
(§2) Human, cynomolgus, and mouse GPNMB analytes were diluted in running buffer (HBS-EP+, Teknova, #8022, with 0.5 mg/ml BSA, MP Biomedicals LLC, #820451), to a concentration of 300 nM, then diluted 3-fold serially to 100 nM, 33 nM, and 11 nM. Each sample was injected for 2 minutes to allow association, followed by dissociation in buffer alone for 10 minutes. Each sample injection was followed by the regeneration of the chip with three 30-second injections of 10 mM glycine, pH 1.7. Fresh antibody was captured at the beginning of each cycle.
(§3) Data were analyzed using Biacore evaluation software to generate kinetic constants. The equilibrium dissociation constants (KD) were calculated from the fitted association and dissociation rate constants (k-on and k-off) for each of the anti-GPNMB antibodies.

[4] = target: T4, soluble human GPNMB (recombinant …); assay: SPR Biacore, IgG captured
Procedure: as §1, §2, §3

[5] = target: T2, full-length untagged human GPNMB …; assay: cell-based or functional assay; remark: listed apart in the source
[6] = target: T2, full-length untagged human GPNMB …; assay: cell-based or functional assay; remark: listed apart in the source
[7] = target: T2, full-length untagged human GPNMB …; assay: FACS titration, FS293-huGPNMB+ cells
Procedure: Affinity matured anti-GPNMB antibodies of the present disclosure were examined to determine their ability to bind human and mouse GPNMB expressed on FS293-huGPNMB+ or B16F10 cells, respectively. Cell-based affinity measurements were performed to ascertain the apparent affinities of anti-GPNMB antibodies to cell-surface expressed GPNMB. Serial dilutions of anti-GPNMB antibodies of the present disclosure were added to 100,000 FS293-huGPNMB+ or B16F10 cells and allowed to achieve binding equilibrium at 4° C. After addition of fluorescently labeled secondary antibody and brief washing steps, MFI values as a function of titrated antibody concentration were recorded via FACS analysis. Equilibrium binding curves were fit using nonlinear regression analysis with Graphpad Prism 6 software.

[8] = target: T5, soluble mouse GPNMB-Fc polypeptide (Fc …); assay: FACS, Fab2 blocking moGPNMB-Fc binding to SVEC4-10 cells
Procedure: Purified recombinant Fab2 fragments of select anti-GPNMB antibodies of the present disclosure were produced through transient transfection and purified. Briefly, 2 ug/mL soluble mouse or human GPNMB-Fc diluted in binding buffer was pre-complexed with increasing concentrations of anti-GPNMB Fab2 fragments in 96-well plates. Subsequently, 100,000 SVEC4-10 cells were added per well and incubated on ice for 30 minutes. Soluble moGPNMB-Fc or huGPNMB-Fc bound to cell surface was detected with fluorescent anti-human IgG1 secondary antibody and measured on FACSCanto. IC50 and EC50 values based on changes in MFI values were calculated for each antibody.

Binder | EC50 PDL1 [2] | Fold Increase CD40 (max response at 1 µg/ml) [2] | Fold Increase PDL1 (max response at 1 µg/ml) [2] | Kd [3] | koff [3] | kon [3] | Kd [4] | koff [4] | kon [4] | Inflammasome: Fold Decrease IL-1β (max response at 0.3 µg/ml) [5] | EC50 GCase [6] | Fold Increase GCase (max response at 1 µg/ml) [6] | EC50 [7] | IC50 [8] | binding result [1]
anti-GPNMB antibody GPN-97 (antibody, V domains shown) VH: QVQLVQSGAEVKKPGASVKVSCKASGYTFTSYWMHWVRQAPGQGLEWMGEINPYDQRTNYAQKFQGRVTMTVDKSTSTVYMELSSLRSEDTAVYYCARSTGNYAWFAYWGQGTLVTVSS VL: DIVMTQSPDSLAVSLGERATINCKTSQDVSPSLAWYQQKPGQPPKLLIYSGSYRYTGVPDRFSGSGSGTDFTLTISSLQAEDVAVYYCQQHYSIPLTFGGGTKVEIK | 0.75 nM | 1.73 fold | 2.05 fold | 8.2 nM | 0.00065 s⁻¹ | 79000 M⁻¹ s⁻¹ | 6.7 nM | 0.00054 s⁻¹ | 81000 M⁻¹ s⁻¹ | 0.476 fold | 0.22 nM | 1.36 fold | 0.546 nM | – | no binding (tested: 300 nM highest analyte concentration)
anti-GPNMB antibody GPN-98 (antibody, V domains shown) VH: QVQLVQSGAEVKKPGASVKVSCKASGYTFTSYWMHWVRQAPGQGLEWMGEINPYDQRTNYAQKFQGRVTMTVDKSTSTVYMELSSLRSEDTAVYYCARSTGNYAWFAYWGQGTLVTVSS VL: DIVMTQSPDSLAVSLGERATINCKASQDVSPSLAWYQQKPGQPPKLLIYSASYRYTGVPDRFSGSGSGTDFTLTISSLQAEDVAVYYCQQHYSIPLTFGGGTKVEIK | 1.24 nM | 1.71 fold | 1.97 fold | 14.6 nM | 0.0011 s⁻¹ | 74000 M⁻¹ s⁻¹ | 11.9 nM | 0.00091 s⁻¹ | 76000 M⁻¹ s⁻¹ | 0.664 fold | 0.25 nM | 1.39 fold | 0.407 nM | – | no binding (tested: 300 nM highest analyte concentration)
recombinant Fab2 fragment of anti-GPNMB antibody GPN-43 (other, also called GPN-43 Fab2) VH: EVQLQQSGPELVKPGASVKISCKASGYTFTDYYMNWVRQSHGKSLEWIGDINPYHGGSTYNQKIKVKATLTVDKSSSTAYMELRSLTSEDSAVYYCARNWPYFDYWGQGTTLTVSS VL: DIQMTQSPASLSASVGETVTITCRASENIYSFLVWYQQKQGKSPQLLVYNAKTLAEGVPSRFSGSGSGTQFSLKISSLQPEDFGSYYCQHHFGTPPYTFGGGTKLEIK | – | – | – | – | – | – | – | – | – | – | – | – | – | 9.42 nM | –

The next lines start with results.

EC50 PDL1 [2] | Fold Increase CD40 (max response at 1 µg/ml) [2] | Fold Increase PDL1 (max response at 1 µg/ml) [2] | Kd [3] | koff [3] | kon [3] | Kd [4] | koff [4] | kon [4] | Inflammasome: Fold Decrease IL-1β (max response at 0.3 µg/ml) [5] | EC50 GCase [6] | Fold Increase GCase (max response at 1 µg/ml) [6] | EC50 [7] | IC50 [8] | Binder | binding result [1]
– | – | – | – | – | – | – | – | – | – | – | – | – | 2.33 nM | recombinant Fab2 fragment of anti-GPNMB antibody GPN-48 (other, also called GPN-48 Fab2) VH: QVQLQQSGPELVKPGASVKLSCRASGYGFSSFWMNWVKQRPGKGLEWIGRIYPGKGDTLYNGKFKDKATLTADESSSTAYMQLSSLTSEDSAVYFCARSIYYYDYWYFDVWDTGTTVTVSS VL: DIVMTQSHKFMSTSVGDRVNITCKASQDVNSAIAWYQQKPGQSPKLLIYSASYRFIGVPDRFTGSGSGTGFTFTISSVQAEDLAVYYCQQHYTTPLTFGAGTKLELK | –
– | – | – | – | – | – | – | – | – | – | – | – | – | 3.19 nM | recombinant Fab2 fragment of anti-GPNMB antibody GPN-52 (other, also called GPN-52 Fab2) VH: DVQLQESGPGLVKPSQTVFLTCTVTGISITTGNYRWSWIRQFPGNKLEWIGYIYYSGTITYNPSLTSRITITRDTPKNEFFLEMNSLTAEDTATYYCARDLTHWYFDVWGTGTTVTVSS VL: not shown | –
